Measured values published in patent US12391751B2, “Antibody against advanced glycation end products and use thereof” (Bloom Technology Corporation, priority 2018, dated 2025).

Assays:
Assay type in all cases: binding
Glycer-AGEs-BSA = Glycer-AGEs-BSA (Bos taurus, UniProt P02769); assay: Dissociation constant measurement, Biacore T200 (Example 8); conditions: Biacore T200, sensor chip CM5; ligand Glycer-AGEs-BSA; antibody 0 to 400 nM
Description: (§1) The dissociation constant (Kd value) of the monoclonal antibody SJ-5 was measured by the following approach: BSA containing AGEs derived from glyceraldehyde (Glycer-AGEs-BSA) was diluted with a 10 mM sodium acetate solution (pH 4.0) to prepare a ligand solution with a final concentration of 100 μg/mL. Biacore T200 (GE Healthcare Japan Corp.) was used for the immobilization of the ligand and the calculation of the KD value. The ligand solution was immobilized onto sensor chip CM5 (GE Healthcare Japan Corp.) using an amine coupling kit (GE Healthcare Japan Corp.). Subsequently, antibody dilution solutions containing the monoclonal antibody diluted into concentrations from 0 to 400 nM were prepared, and the Kd value was calculated.

GAL13-BSA = biological target: T1, GAL13-BSA (Bos taurus, UniProt P02769); assay: as above; conditions: Biacore T200, sensor chip CM5; ligand GAL13-BSA
T1 construct: purchased Sigma-Aldrich Co. LLC
T1 sequence (P02769 25-607): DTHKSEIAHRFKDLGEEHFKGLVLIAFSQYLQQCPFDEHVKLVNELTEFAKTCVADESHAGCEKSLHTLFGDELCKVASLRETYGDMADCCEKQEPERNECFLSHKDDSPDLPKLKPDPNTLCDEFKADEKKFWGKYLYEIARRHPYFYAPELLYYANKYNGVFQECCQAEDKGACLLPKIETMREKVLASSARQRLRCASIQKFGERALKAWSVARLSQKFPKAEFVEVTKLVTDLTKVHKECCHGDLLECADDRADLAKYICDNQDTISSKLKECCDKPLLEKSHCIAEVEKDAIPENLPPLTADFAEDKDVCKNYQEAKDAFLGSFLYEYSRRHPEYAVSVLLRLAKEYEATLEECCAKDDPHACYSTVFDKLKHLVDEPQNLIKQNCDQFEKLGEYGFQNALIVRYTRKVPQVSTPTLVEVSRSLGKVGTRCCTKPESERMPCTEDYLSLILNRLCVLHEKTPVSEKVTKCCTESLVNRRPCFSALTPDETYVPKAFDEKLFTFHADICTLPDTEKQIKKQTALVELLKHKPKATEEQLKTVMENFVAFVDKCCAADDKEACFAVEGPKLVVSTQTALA
Description: as §1
BSA chemically bonded to the peak obtained in fractionation by HPLC (GAL13-BSA) was diluted with a 10 mM sodium acetate solution (pH 5.0) to prepare a ligand solution with a final concentration of 25 μg/mL.

[1] = test system: protein modified with the novel structure in human serum; assay: Western blotting of human serum protein purified with PB-1 antibody column (Example 37); conditions: PB-1 as primary antibody; versus secondary antibody only
Description: The solvent for the PB-1 antibody was replaced with a coupling buffer solution (0.2 M sodium carbonate, 0.5 M NaCl, pH 8.3) through a PD10 column (GE Healthcare Japan Corp.) to prepare 1 mL of a 10 mg/mL PB-1 antibody solution. The coupling support used was NHS-activated Sepharose 4 Fast Flow (GE Healthcare Japan Corp.). 10 mL of 1 mM HCl cooled in an ice bath was injected to 1 mL of NHS-activated Sepharose 4 Fast Flow, immediately thereafter mixed with the preliminarily prepared 10 mg/mL PB-1 antibody solution, and mixed by inversion (4° C., overnight) using a rotator (Taitec Corp.) so that the PB-1 antibody was immobilized to the coupling support. Then, 3 mL each of a buffer solution for blocking (0.1 M Tris-HCl, pH 8.0) and a buffer solution for washing (0.1 M sodium acetate, 0.5 M NaCl, pH 5.0) was injected thereto in order, and this operation was repeated three times. Finally, the solvent was replaced by the injection of 10 mL of PBS, followed by storage at 4° C.
The purification sample used was human serum (pool) (Cosmo Bio Co., Ltd.). […] Each fraction obtained by purification was analyzed by electrophoresis (SDS-PAGE) according to a routine method. […]

[2] = biological target: T2, reaction of the SJ-5 antibody with A-peak-BSA (Bos taurus, UniProt P02769); assay: Cross-competition with HRP-labeled SJ-5 antibody by competitive ELISA (Example 33); conditions: competitor antibody 0.049 to 50 μg/mL
T2 construct: made in house
T2 sequence (P02769 25-607): as above
Description: A solution of A-peak-BSA prepared into 1 μg/mL in a coating solution was added at 100 μL/well to a 96-well microtiter plate (Costar) and incubated overnight at 4° C.
Each well after the immobilization treatment was washed three times with a washing solution (300 μL), and PBS containing 0.05% Tween 20 (PBS-T) and containing 0.5% gelatin dissolved therein (200 μL) was added thereto and left standing at room temperature for 1 hour.
The PB-1 antibody, a mouse IgG isotype control (Ctrl-mIgG, Thermo Fisher Scientific Inc.), and the anti-GA-pyridine antibody 2A2 (Cosmo Bio Co., Ltd.) were each diluted with PBS-T containing 0.1% gelatin to prepare 4-fold dilution series (0.049 to 50 μg/mL). Also, a HRP-labeled SJ-5 antibody (Example 4) was diluted 10000-fold with PBS-T containing 0.1% gelatin.
Each well treated with the blocking solution was washed three times with a washing solution (300 μL), and the sample solutions of 4-fold dilution series (50 μL each) and the HRP-labeled SJ-5 antibody dilution solution (50 μL) were added thereto, stirred with a plate mixer for 2 minutes, and then incubated at room temperature for 1 hour. […]
Absorbance was measured at a dominant wavelength of 450 nm and a sub-wavelength of 650 nm with a microplate reader (Cytation 5, BioTek Instrument Inc.), and the absorbance at the sub-wavelength was subtracted from the absorbance at the dominant wavelength.

Chain of Glycer-AGEs-BSA (P02769 25-607): as above

Kd (Glycer-AGEs-BSA) | Kd (GAL13-BSA) | Molecule | protein band detection in Western blotting [1] | change in absorbance of HRP-labeled SJ-5 binding to A-peak-BSA (cross-competition) [2]
57.4 nM | 87.5 nM | SJ-5: mouse monoclonal antibody raised against GAL13-MSA; heavy-chain variable region SEQ ID NO 4, light-chain variable region SEQ ID NO 8 (antibody, listed as Mus musculus, V domains shown) VH: EVMLVESGGRLVKPGGSLKLSCAASGFTFSSYGMSWVRQTPEKRLEWVATISGGGSYTYYPDSVKGRFTISRDNVKNNLYLQMSSLRSEDTALYYCARRGAYGDYGWFAYWGQGTLVTVSA VL: DIVLTQSPATLSVTPGDSVSLSCRASQSINNNLHWYQQKSHESPRLLIKCASQSISGIPSRFSGSGSGTDFTLSINSVETEDFGMYFCQQSNSWPLTFGAGTKLELK | – | –
– | – | PB-1: mouse monoclonal antibody raised against A-peak-BSA; heavy-chain variable region SEQ ID NO 18, light-chain variable region SEQ ID NO 22 (antibody, listed as Mus musculus, V domains shown) VH: EVRLQQSGPELVKPGTSVKISCKASGYSFTGYYMHWVKQSPVKSLEWIGRIIPYNGATSYNQNFKDKASLTVDKSSRTAYMDLHSLTSEDSAVYYCARSRYYGRAPYYFDYWGQGTTLTVSS VL: DVVVTQTPLSLPVSLGDQASISCRSSQSIVHSNGNTYLEWYLQKPGQSPKLLIYKVSNRFSGVPDRISGSGSGTDFTLKISRVEAGDLGVYSCFQGSHVPFTFGSGTKLEIK | a band was detected | decreased in a PB-1 concentration-dependent manner
